Experimental data from patent US20070055459A1 (Harvard, published 2007).

T1: HSV UL42 (processivity factor of HSV DNA polymerase) (herpes simplex virus (HSV), UniProt P10226 1-488)
T1 sequence: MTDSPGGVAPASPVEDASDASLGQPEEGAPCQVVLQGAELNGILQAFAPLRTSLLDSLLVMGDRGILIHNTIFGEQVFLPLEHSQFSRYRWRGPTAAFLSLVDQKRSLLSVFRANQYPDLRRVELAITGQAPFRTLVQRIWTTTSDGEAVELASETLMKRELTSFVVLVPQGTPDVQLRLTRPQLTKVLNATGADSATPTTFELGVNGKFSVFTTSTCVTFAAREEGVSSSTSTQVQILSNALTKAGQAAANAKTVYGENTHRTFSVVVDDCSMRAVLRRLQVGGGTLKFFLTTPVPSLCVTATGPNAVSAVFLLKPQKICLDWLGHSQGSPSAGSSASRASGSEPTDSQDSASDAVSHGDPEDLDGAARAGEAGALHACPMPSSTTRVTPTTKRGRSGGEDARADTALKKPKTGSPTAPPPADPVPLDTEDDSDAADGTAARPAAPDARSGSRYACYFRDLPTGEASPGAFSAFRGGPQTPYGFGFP


What was measured:
[1] = target: T1, HSV UL42 (processivity factor of HSV …); experiment: cell-based or functional assay
[2] = target: T1, HSV UL42 (processivity factor of HSV …); experiment: cell-based or functional assay; remark: listed apart in the source

Row | Binder | IC50, inhibition of long chain DNA synthesis [1] [µM] | inhibition of long-chain DNA synthesis at 100 µM [2] [% inhibition at 100 µM] | IC50 relative to that of peptide E [2] [fold]
1 | ATAEETRAMLHRAFDTLA [peptide E mutant R26A] | 14 |  | 
2 | ATAEETRRMLHRAADTLA [peptide E mutant F32A] | > 100 | < 20 | 
3 | ATAEETRRMLARAFDTLA [peptide E mutant H29A] | > 100 | < 20 | 
4 | ATAEETRRALHRAFDTLA [peptide E mutant M27A] | > 100 | 40 | 
5 | ATAEEARRMLHRAFDTLA [peptide E mutant T24A] | 77 |  | 3 to 7
6 | ATAEETRRMLHRAFATLA [peptide E mutant D33A] | 50 |  | 
7 | ATAEETRRMLHAAFDTLA [peptide E mutant R30A] | > 100 | < 20 | 
8 | AAAEETRRMLHRAFDTLA [peptide E mutant T20A] | > 100 | < 20 | 
9 | ATAEETARMLHRAFDTLA [peptide E mutant R25A] | 40 |  | 3 to 7
10 | ATAEETRRMLHRAFDALA [peptide E mutant T34A] | 10 |  | 
11 | ATAAETRRMLHRAFDTLA [peptide E mutant E22A] | > 100 | < 20 | 
12 | ATAEETRRMLHRAFDTAA [peptide E mutant L35A] | 97 | 50 | 
13 | DDVAARLRAAGFGAVGAGATAEETRRMLHRAFDTLA [Peptide A (C-terminal 36 amino acid residues of HSV DNA polymerase, Pol residues 1200-1235)] | 1.7 |  | 
14 | ATAEETRRMLHRAFDTLA [Peptide E (last 18 residues of HSV DNA polymerase, Pol residues 1218-1235)] | 11 |  | 
15 | ATAEATRRMLHRAFDTLA [peptide E mutant E23A] | 21 |  | 
16 | ATAEETRRMAHRAFDTLA [peptide E mutant L28A] | 18 |  | 
